Assay results reported in US20180044427A1 (Janssen / Centocor, published 2018).

T1: human FcγRIIA (NM_021642) (human, UniProt P12318 36-317)
T1 construct: Transiently expressed on Expi293F cells
T1 sequence: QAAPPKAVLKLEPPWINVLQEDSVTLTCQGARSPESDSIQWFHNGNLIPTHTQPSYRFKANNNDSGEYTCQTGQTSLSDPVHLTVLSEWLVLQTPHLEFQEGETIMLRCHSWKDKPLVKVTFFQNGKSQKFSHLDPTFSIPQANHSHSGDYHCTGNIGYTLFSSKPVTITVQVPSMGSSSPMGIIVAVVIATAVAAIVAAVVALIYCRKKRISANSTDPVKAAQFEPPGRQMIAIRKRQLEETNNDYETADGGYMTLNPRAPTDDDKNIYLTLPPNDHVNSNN

T2: human FcγRIIB (NM_004001) (human, UniProt P31994 43-310)
T2 construct: Transiently expressed on Expi293F cells
T2 sequence: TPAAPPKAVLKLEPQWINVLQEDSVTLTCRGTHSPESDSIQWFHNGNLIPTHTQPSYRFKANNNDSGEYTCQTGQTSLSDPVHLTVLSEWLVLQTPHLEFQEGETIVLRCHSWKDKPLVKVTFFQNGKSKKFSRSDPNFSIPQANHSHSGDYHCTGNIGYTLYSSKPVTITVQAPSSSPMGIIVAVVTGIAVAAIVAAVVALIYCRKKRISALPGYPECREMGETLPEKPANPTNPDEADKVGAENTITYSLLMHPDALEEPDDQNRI

B1: OX40SF2IgG1 (antibody)
chain 1: not shown
chain 2: DIQMTQSPSSLSASVGDRVTITCKASQDVGAAVAWYQQKPGKAPKLLIYWASTRHTGVPSRFSGSGSGTDFTLTISSLQPEDFATYYCQQYINYPLTFGGGTKVEIKRTVAAPSVFIFPPSDEQLKSGTASVVCLLNNFYPREAKVQWKVDNALQSGNSQESVTEQDSKDSTYSLSSTLTLSKADYEKHKVYACEVTHQGLSSPVTKSFNRGEC
B2: OX40SF2IgG1T437R (antibody)
heavy: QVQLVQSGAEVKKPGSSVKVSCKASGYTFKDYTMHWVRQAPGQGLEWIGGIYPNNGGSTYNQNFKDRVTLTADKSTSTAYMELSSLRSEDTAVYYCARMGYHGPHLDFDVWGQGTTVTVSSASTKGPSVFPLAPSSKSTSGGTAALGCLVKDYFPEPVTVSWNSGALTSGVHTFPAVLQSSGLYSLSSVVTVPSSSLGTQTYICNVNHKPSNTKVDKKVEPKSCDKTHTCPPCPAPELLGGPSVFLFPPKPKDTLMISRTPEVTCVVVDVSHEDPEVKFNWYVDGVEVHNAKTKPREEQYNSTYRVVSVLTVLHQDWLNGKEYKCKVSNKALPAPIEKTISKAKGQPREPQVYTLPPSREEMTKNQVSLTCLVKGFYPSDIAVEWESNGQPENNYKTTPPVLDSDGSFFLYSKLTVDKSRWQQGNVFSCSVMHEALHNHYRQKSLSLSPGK
VL: DIQMTQSPSSLSASVGDRVTITCKASQDVGAAVAWYQQKPGKAPKLLIYWASTRHTGVPSRFSGSGSGTDFTLTISSLQPEDFATYYCQQYINYPLTFGGGTKVEIK
notes: also called SF2 antibody with T437R
B3: OX40SF2IgG1T437R/K248E (antibody)
heavy: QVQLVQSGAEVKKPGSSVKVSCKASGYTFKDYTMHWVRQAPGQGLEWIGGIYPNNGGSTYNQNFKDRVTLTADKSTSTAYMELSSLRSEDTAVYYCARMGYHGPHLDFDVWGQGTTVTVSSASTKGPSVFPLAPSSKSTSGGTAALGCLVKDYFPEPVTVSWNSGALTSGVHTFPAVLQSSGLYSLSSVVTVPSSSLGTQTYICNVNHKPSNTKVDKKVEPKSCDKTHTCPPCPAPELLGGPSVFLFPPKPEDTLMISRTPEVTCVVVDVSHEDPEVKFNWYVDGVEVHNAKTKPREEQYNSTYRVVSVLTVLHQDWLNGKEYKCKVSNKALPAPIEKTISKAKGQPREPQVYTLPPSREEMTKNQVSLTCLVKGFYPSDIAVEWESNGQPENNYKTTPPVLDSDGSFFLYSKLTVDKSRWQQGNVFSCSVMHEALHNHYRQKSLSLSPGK
VL: B2 VL

What was measured:
[1] = biological target: T1, human FcγRIIA (NM_021642); assay: flow cytometry on transiently transfected Expi293F cells
Description: (§1) Plasmids expressing cDNAs encoding human FcγRI (NM_000566) (SEQ ID NO: 59), FcγRIIA (NM_021642) (SEQ ID NO: 60), FcγRIIB (NM_004001) (SEQ ID NO: 61), and FcγRIIIA (NM_000569) (SEQ ID NO: 62) (Origene) were transiently transfected into Expi293F cells by ExpiFectamine293 transfection kit (Life Technologies). Flow cytometry assays were performed 48 h after transfection. […] Raji cells (ATCC: CCL-86) were also employed to test the binding of anti-OX40 antibody to FcγRIIB receptor.
(§2) 2×10⁵ cells per well were seeded in 96-well plate and blocked in BSA Stain Buffer (BD Biosciences, San Jose, USA) for 30 min at 4° C. Cells were incubated with test antibody on ice for 1.5 h at 4° C. After being washed twice with BSA stain buffer, the cells were incubated with R-PE labeled anti-human or anti-mouse IgG secondary antibody (Jackson Immunoresearch Laboratories) for 45 min at 4° C. The cells were washed twice in stain buffer and then resuspended in 150 μL of Stain Buffer containing 1:200 diluted DRAQ7 live/dead stain (Cell Signaling Technology, Danvers, USA). PE and DRAQ7 signals of the stained cells were detected by Miltenyi MACSQuant flow cytometer (Miltenyi Biotec, Auburn, USA) using B2 and B4 channel respectively. Live cells were gated on DRAQ7 exclusion and the geometric mean fluorescence signals were determined for at least 10,000 live events collected. FlowJo software (Tree Star) was used for analysis. Data was plotted as the logarithm of antibody concentration versus mean fluorescence signals. Nonlinear regression analysis was performed by GraphPad Prism 6 (GraphPad Software, Inc.) and EC₅₀ values were calculated.
(§3) The binding of engineered anti-OX40 SF2 antibodies to various FcγR receptors expressed on transiently-transfected Expi293F cells were assessed by flow cytometry as described in Example 3.

[2] = biological target: T2, human FcγRIIB (NM_004001); assay: as above
Description: as §1, §2, §3

human FcγRI (NM_000566) = biological target: T3, human FcγRI (NM_000566) (human, UniProt P12314 16-374); assay: as above
T3 construct: Transiently expressed on Expi293F cells
T3 sequence (P12314 16-374 limits assumed): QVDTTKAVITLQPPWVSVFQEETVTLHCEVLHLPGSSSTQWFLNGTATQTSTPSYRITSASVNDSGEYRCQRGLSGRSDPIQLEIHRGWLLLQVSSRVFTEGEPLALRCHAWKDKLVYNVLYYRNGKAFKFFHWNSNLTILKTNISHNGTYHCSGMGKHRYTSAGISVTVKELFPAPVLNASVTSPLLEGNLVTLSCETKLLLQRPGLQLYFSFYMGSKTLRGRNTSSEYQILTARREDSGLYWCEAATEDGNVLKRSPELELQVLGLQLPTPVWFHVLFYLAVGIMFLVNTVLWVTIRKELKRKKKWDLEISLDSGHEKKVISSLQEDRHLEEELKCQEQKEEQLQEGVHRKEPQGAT
Description: as §1, §2, §3

[3] = biological target: T4, human FcγRIIIA (NM_000569) (human, UniProt P08637 17-254); assay: as above
T4 construct: Transiently expressed on Expi293F cells
T4 sequence (P08637 17-254 limits assumed): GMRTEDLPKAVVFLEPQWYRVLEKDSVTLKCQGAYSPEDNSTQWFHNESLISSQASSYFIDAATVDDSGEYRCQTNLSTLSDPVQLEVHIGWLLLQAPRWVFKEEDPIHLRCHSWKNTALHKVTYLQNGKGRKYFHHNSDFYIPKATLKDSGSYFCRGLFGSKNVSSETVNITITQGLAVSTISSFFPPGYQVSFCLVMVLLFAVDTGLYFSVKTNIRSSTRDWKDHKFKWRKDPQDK
Description: as §1, §2, §3

[4] = biological target: T5, recombinant human FcRn extracellular domain with a poly-histidine affinity tag (FcRn-His6) (human, UniProt P55899 24-297); assay: competitive binding assay on plate-captured FcRn-His6 at pH 6.0; competitor: biotinylated human IgG1 indicator antibody at 1 µg/mL
T5 construct: extracellular domain
T5 sequence (P55899 24-297, form in doubt): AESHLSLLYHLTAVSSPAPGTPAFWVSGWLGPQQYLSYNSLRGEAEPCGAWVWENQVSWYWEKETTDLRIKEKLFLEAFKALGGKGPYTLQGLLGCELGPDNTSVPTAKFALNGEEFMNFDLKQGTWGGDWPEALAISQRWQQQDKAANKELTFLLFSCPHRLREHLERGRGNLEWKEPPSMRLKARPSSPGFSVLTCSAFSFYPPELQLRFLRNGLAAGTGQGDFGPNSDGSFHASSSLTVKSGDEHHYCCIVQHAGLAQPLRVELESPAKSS
Description: A competitive binding assay was used to assess relative affinities of different antibody samples to a recombinant human FcRn extracellular domain with a poly-histidine affinity tag (FcRn-His6). Ninety-six-well copper-coated plates (Thermo Scientific) were used to capture FcRn-His6 at 5 μg/mL in PBS, after which plates were washed with 0.15M NaCl, 0.02% Tween 20, and then incubated with blocking reagent (0.05M MES [2-(N-morpholino) ethanesulfonic acid], 0.025% bovine serum albumin (BSA), 0.001% Tween-20, pH 6.0, 10% chemiBLOCKER (Millipore)). […] Plates were incubated at room temperature for 1 hour, washed three times as above, and then incubated with a 1:10,000 dilution of streptavidin-horseradish peroxidase (HRP) (Jackson ImmunoResearch Laboratories) at room temperature for 30 minutes to bind biotinylated antibody. Plates were washed five times as above, and bound streptavidin-HRP detected by adding TMB (3,3′,5,5′-tetramethylbenzidine) peroxidase substrate with stable stop (Fitzgerald Industries International) and incubating for 4 minutes. Color development was stopped by addition of 0.5 M HCl. Optical densities were determined with a SpectraMax Plus384 plate reader (Molecular Devices) at 450 nm wavelength.

Binder	EC50 [1]	EC50 [2]	EC50 (human FcγRI (NM_000566))	EC50 [3]	IC50 [4]
B1	4.56 µg/mL	> 10 µg/mL	0.326 µg/mL	0.744 µg/mL	
B2	4.13 µg/mL	> 10 µg/mL	0.24 µg/mL	1.14 µg/mL	1.1 µg/mL
B3	3.39 µg/mL	> 10 µg/mL	0.248 µg/mL	1.56 µg/mL	1.6 µg/mL
